Data: patent US20240374747A1, “FUSION PROTEIN OF VHH ANTIBODY AND STREPTAVIDIN MUTANT” (The University of Tokyo, priority 2023, published 2024)
Where two headings read alike, the source gives them in different places.

Assays:
[1] = SPR analysis of interaction between Anti-HER2 VHH-Cupid and Psyche-Duocarmycin (Biacore T200); type: binding
Protocol: The surface plasmon resonance (SPR) analysis was performed using a Biacore T200 (Cytiva). […] The association and dissociation rate constants were evaluated using Biacore T200 Evaluation Software version 3 (Cytiva) by bivalent analyte model, and KD values were calculated.

[2] = system: Her2-positive cells (KPL-4); type: cell-based
Protocol: Her2-positive cells (KPL-4) were seeded on a 96-well plate to result in a cell count of 1×10^3 cells/well and a culture solution amount of 50 μL/well and were then cultured overnight. […] After the dilution series had been prepared, 50μ of the complex was each added to the cells, and the cells are cultured for 6 to 7 days. […] A reagent was added in accordance with the dosage and administration described in the instruction manual, and the resulting cells were then incubated at 37° C. in a CO2 incubator for 1.5 hours. After that, the absorbance at 450 nm was measured, and the mean value was then calculated, followed by background correction. Thereafter, the control was set at 100%, and the cell proliferation percentage to the control under individual conditions was calculated.

[3] = pH conditions of dialysis buffer for tetramer formation (non-reducing electrophoresis, densitometry); type: physicochemical; conditions: dialyzed with refolding buffer B (pH 8.0) to remove guanidine hydrochloride
[4] = as above; type: physicochemical
Protocol: Then, the sample was put into dialysis tube and dialyzed with buffers (50 mM sodium phosphate, 400 mM arginine HCl, pH 4.0˜8.0). 100 μL of the sample after refolding was dialyzed at 25° C. for 1 hour using 30 mL of buffer and the Mini Dialysis Kit 1 kD (Cytiva). Thereafter, dialysis was performed at 4° C. for 18 hours with 30 mL of fresh buffer, followed by overnight dialysis at 4° C. with 30 mL of fresh buffer. The post-dialysis samples from each pH condition were analyzed by non-reducing electrophoresis and the result image was shown in FIG. 7. […] As shown in FIG. 7 and Table 2, the monomers were equal to or less than 8% and the tetramers were equal to or more than 92% in pH of 6.0 or less, whereas the percentage of monomers increased at a pH of 6.5 or more. At pH 8.0, the same as the pH of refolding buffer B, 81% of the monomers and 19% of the tetramers were present. […] The theoretical pIs of Anti-HER2 VHH and Cupid moieties were approximately 7.6 and 6.5, respectively. Therefore, it is preferable that a buffer for tetramer formation should be pH 6.0 or less to avoid aggregation induced by the Cupid moiety.

[5] = system: Her2-positive cells (KPL-4)
Protocol: Her2-positive cells (KPL-4) were seeded on a 96-well plate to result in a cell count of 1×10^4 cells/well and a culture solution amount of 50 μL/well and were then cultured overnight. […] A reagent was added in accordance with the dosage and administration described in the instruction manual, and the resulting cells were then incubated at 37° C. in a CO2 incubator for 1.5 hours. […] Thereafter, the control was set at 100%, and the cell proliferation percentage to the control under individual conditions was calculated.

B1: Anti-HER2 VHH-Cupid: fusion protein of an anti-HER2 VHH single-domain antibody (SEQ ID NO: 2), Gly-Ser linker and Cupid mutant streptavidin; forms a tetramer (protein)
chain: MQVQLQESGGGSVQAGGSLKLTCAASGYIFNSCGMGWYRQSPGRERELVSRISGDGDTWHKESVKGRFTISQDNVKKTLYLQMNSLKPEDTAVYFCAVCYNLETYWGQGTQVTVSSGGGGSGGGGSGGGGSAEAGITGTWSDQLGDTFIVTAGADGALTGTYENAVGGAESRYVLTGRYDSAPATDGSGTALGWTVAWKNNSKNAHSATTWSGQYVGGADAKINTQWLLTSGTTNANAWKSTLVGHDTFTKVKPSAASHHHHHH
modifications: tetramer
notes: forms a tetramer
In the case of B1, the “association rate constant (Ka1)” value ([1]; Anti-HER2 VHH-Cupid captured via anti-histidine antibody, Psyche-Duocarmycin analyte 10 nM to 0.3125 nM, bivalent analyte model) is reported as 1.336×10^4 l/Ms, the “binding activity to Psyche-Duocarmycin” value ([1]; SPR) is reported as “had binding activity to Psyche-Duocarmycin” and the “cytotoxic activity compared with FL2 as vector” value [2] is reported as “stronger cytotoxic activity than FL2”. The “oligomeric state after dialysis with refolding buffer B” value [3] was “almost all of the Anti-HER2 VHH-Cupid were monomeric”, the “Monomer band (%)” value ([4]; dialysis buffer pH 4.0) was 4% and the “Tetramer band (%)” value ([4]; dialysis buffer pH 4.0) was 96%. For the same molecule, the “Monomer band (%)” value ([4]; dialysis buffer pH 5.0) was 6%, the “Tetramer band (%)” value ([4]; dialysis buffer pH 5.0) was 94% and the “Monomer band (%)” value ([4]; dialysis buffer pH 5.5) was 8%. For the same molecule, the “Tetramer band (%)” value ([4]; dialysis buffer pH 5.5) was 92%, the “Monomer band (%)” value ([4]; dialysis buffer pH 6.0) was 8% and the “Tetramer band (%)” value ([4]; dialysis buffer pH 6.0) was 92%. The “Monomer band (%)” value ([4]; dialysis buffer pH 6.5) was 13%, the “Tetramer band (%)” value ([4]; dialysis buffer pH 6.5) was 87% and the “Monomer band (%)” value ([4]; dialysis buffer pH 7.0) was 35%. For the same molecule, the “Tetramer band (%)” value ([4]; dialysis buffer pH 7.0) was 65%, the “Monomer band (%)” value ([4]; dialysis buffer pH 7.5) was 77% and the “Tetramer band (%)” value ([4]; dialysis buffer pH 7.5) was 23%. For the same molecule, the “Monomer band (%)” value ([4]; dialysis buffer pH 8.0) was 81%, the “Tetramer band (%)” value ([4]; dialysis buffer pH 8.0) was 19% and the “tetramer formation of the refolded sample” value ([4]; dialysis buffers pH 4.0-8.0, FIG. 7) was “formed tetramers in pH-dependent manner”. The percentage of monomers ([4]; pH of 6.0 or less) was ≤ 8%, the percentage of tetramers ([4]; pH of 6.0 or less) was ≥ 92% and the “cytotoxic activity compared with FL2 as vector” value [5] was “stronger cytotoxic activity than FL2”.
